From the supplement of paper PMC10567573

B1: FAM50A (parent)
chain: HIFPASRWEPYDPEKKWDKYTIR
B2: SASS6 (parent)
chain: QKELQDVGQSLRIKEQEVCKLQEQ

Variants of: B1
Assay: protein stability index of a GFP-peptide fusion (GPS, HEK-293T) (PSI 1-6); higher = more stable
Conditions: c terminus: native
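Further: lentivirally expressed fusions sorted by FACS into six bins by GFP to DsRed ratio, PSI derived from sequencing read proportions per bin multiplied by bin number.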

Variant | protein stability index
F3Q | 3.31
T21K | 1.93
T21V | 2.55
Y20G | 2.16
K15E | 1.66
K15R | 1.8
P13A | 2.44
P13R | 2
D12Y | 1.75
D12M | 2.6
D12V | 3.47
I2D | 2.28
I2S | 2.83
K16L | 2.63
W8S | 3.62
P10L | 1.8

Variant | protein stability index
S6I | 2.63
S6D | 1.87
S6F | 2.92
H1Q | 2.5
E14I | 2.68
E14M | 2.38
E14G | 2.5
I22L | 2.25
I22Q | 2.91
I22G | 2.29
E9W | 2.74
E9C | 3.21
R7T | 2.66
W17Q | 3.14
Y11V | 2.67

Variants of: B2
Assay: as above
Conditions: c terminus: a fixed tail appended

Variant | protein stability index
E23P | 4.49
E23L | 4.69
E23S | 4.82
E23C | 4.29
E23K | 4.89
E23Y | 4.12
E23H | 5.02
E23F | 4.52
E23R | 4.76
E23N | 4.5
E23D | 5.27
E23I | 4.4
E23V | 4.51
E23M | 4.24
L11Q | 5.54
L11F | 5.26
L11W | 5.11
L11G | 5.88
L11P | 5.37
L11S | 5.47
L11A | 5.25
L11V | 5.39
L11T | 5.67
L11C | 5.09
L11N | 5.77
L11E | 5.84

Variant | protein stability index
L11D | 5.75
L11Y | 5.21
Q22C | 4.34
Q22Y | 4.67
Q22H | 4.79
Q22P | 5.27
Q22M | 4.88
Q22I | 4.69
Q22D | 5.58
Q22V | 4.4
Q22R | 5.07
Q22T | 5.06
Q22N | 5.11
Q22E | 5.4
I13H | 4.64
I13S | 5.45
I13W | 4.57
I13N | 5.31
I13C | 3.3
I13V | 5.44
I13K | 5.29
I13Y | 4.95
I13E | 5.34
I13M | 5.64
I13A | 4.69
I13R | 5.7

Variant | protein stability index
I13T | 5.13
I13P | 5.38
I13F | 4.85
V18H | 5.11
V18D | 5.94
V18G | 4.49
V18N | 5.19
V18Y | 5.03
V18K | 5.32
V18M | 5.46
V18R | 5.62
V18E | 5.95
V18W | 4.28
V18I | 4.75
V18L | 5.25
V18F | 4.5
V18T | 4.74
V18P | 3.51
L21C | 5.73
L21G | 5.9
L21I | 5.43
L21Q | 5.42
L21H | 5.57
L21K | 5.81
L21N | 5.68
L21E | 5.78

Variant | protein stability index
L21P | 5.4
L21T | 5.68
L21A | 5.02
L21F | 5.14
L21D | 5.84
V7K | 5.16
V7M | 3.42
V7S | 5.76
V7P | 4.8
V7I | 5.05
V7C | 3.36
V7Q | 5.82
V7L | 5.14
V7W | 4.64
V7G | 5.41
V7H | 4.72
V7F | 4.73
V7T | 5.68
V7Y | 5.18
V7N | 4.92
V7D | 5.71
R12G | 5.6
R12Y | 5.28
R12N | 5.19
R12A | 5.34
R12P | 5.39

Variant | protein stability index
R12L | 5.33
R12C | 4.81
R12H | 5.41
R12D | 4.03
R12K | 5.55
R12E | 5.71
R12I | 5.14
R12T | 3.75
S10Y | 4.32
S10V | 3.9
S10D | 3.74
S10T | 5.48
S10M | 5.33
S10E | 5.72
S10H | 4.89
S10K | 5.1
S10G | 4.74
S10L | 5
S10C | 4.12
K2I | 4.88
K2L | 4.97
K2C | 5.29
K2S | 5.43
K2M | 5.1
K2Y | 4.98
K2E | 5.48

Variant | protein stability index
K2G | 4.65
G8P | 4.75
G8R | 5.48
G8Y | 4.18
G8A | 3.61
G8W | 3.84
G8V | 4.69
G8M | 4.98
G8D | 5.26
G8E | 5.38
G8C | 4.92
G8S | 5
G8I | 4
G8N | 5.12
Q24C | 5
Q24I | 4.7
Q24G | 5.12
Q24A | 5.21
Q24Y | 4.57
Q24D | 5.04
Q24L | 5.16
Q24W | 4.84
Q24N | 5.39
Q24M | 5.05
Q24S | 4.43
Q24T | 5.35

Variant | protein stability index
Q24H | 4.95
Q24P | 5.58
E3T | 5.08
E3W | 3.84
E3P | 3.71
E3D | 5.34
E3N | 4.88
E3Q | 4.68
E3F | 3.29
E3H | 4.39
E3K | 4.63
E3C | 4.83
E3S | 5.1
E3R | 5.25
E3V | 4.52
Q1S | 4.63
Q1E | 5.94
Q1T | 4.55
Q1C | 4.99
Q1M | 4.5
Q1L | 4.46
Q1P | 4.91
Q1F | 4.25
Q1K | 5.22
Q1N | 5.75
E17I | 4.28

Variant | protein stability index
E17C | 4.56
E17H | 5.02
E17Q | 4.62
E17S | 4.97
E17K | 5.25
E17Y | 4.22
E17D | 5.55
E17L | 4.77
E17G | 4.96
K20G | 5.36
K20P | 4.98
K20H | 4.49
K20V | 5.26
K20I | 5.15
K20F | 4.31
K20Y | 4.66
K20R | 4.82
K20L | 5.02
K20N | 5.12
K20C | 5.11
K20M | 5.24
Q9H | 5.05
Q9P | 5.56
Q9E | 4.49
Q9A | 5.52
Q9L | 4.84

Variant | protein stability index
Q9F | 4.13
Q9N | 5.67
Q9K | 5.3
Q9I | 4.97
Q9Y | 4.87
Q9C | 4.76
Q9S | 4.47
Q9M | 4.67
Q9D | 5.71
D6T | 4.74
D6H | 4.62
D6A | 5.17
D6P | 5.26
D6E | 5.05
D6V | 4.46
D6L | 4.14
D6Q | 5.31
D6S | 4.91
D6M | 5.02
D6Y | 4.58
K14N | 4.6
K14G | 5.46
K14T | 5.75
K14Y | 4.68
K14P | 4.73
K14S | 5.33

Variant | protein stability index
K14E | 5.49
K14C | 5.54
K14I | 4.43
K14V | 4.94
E15D | 5
E15L | 4.15
E15I | 2.8
E15H | 4.49
E15K | 3.7
E15G | 5.1
E15F | 3.24
E15A | 5.01
E15C | 4.11
E15W | 2.06
E15T | 4.56
E15S | 4.85
E15Q | 4.66
E15M | 4.54
Q5V | 5.13
Q5G | 5.69
Q5C | 5.7
Q5N | 5.3
Q5L | 2.94
Q5R | 4.41
Q5T | 5.41
Q5M | 5.16

Variant | protein stability index
Q5Y | 4.32
Q5S | 5.16
L4P | 5.34
L4Q | 4.24
L4S | 5.41
L4G | 5.59
L4F | 5.11
L4N | 5.1
L4Y | 4.98
L4H | 5.68
L4W | 4.82
L4A | 5.25
L4D | 5.57
L4I | 5.34
L4V | 5.28
L4M | 3.98
Q16T | 5.28
Q16H | 5.13
Q16S | 5.56
Q16M | 4.96
Q16W | 4.66
Q16I | 4.84
Q16G | 5.83
Q16L | 4.71
Q16E | 5.63
Q16C | 4.99

Variant | protein stability index
Q16V | 5.21
Q16Y | 4.68
Q16K | 5.48
Q16D | 5.43
C19Y | 5.19
C19S | 5.53
C19Q | 5.61
C19T | 5.31
C19H | 5.61
C19M | 5.34
C19P | 4.9
C19K | 4.88
C19I | 4.35
C19D | 5.56
C19E | 5.78
C19R | 5.23
C19F | 5.35
